# According to patent US20240285785A1, “TARGETING SORTILIN” (priority 2022, published 2024):
# Legend:
# [1] = system: MDA-MB-231 tumor cells; experiment: MDA-MB-231 murine xenograft efficacy model; type: in vivo, BALB/c Nude mice
# [2] = Murine plasma stability assay; type: in vitro ADME; details: mouse, 37° C., read-out: Murine plasma stability assay, T1/2
# Description: Frozen plasma was thawed at 37° C. and centrifuged at 4000 rpm to remove any clots and transferred to 96-well reaction plates by WuXi AppTec. Test compounds were added to the reaction plate at a final concentration of 2 μM and either stopped immediately or incubated at 37° C. for 5 minutes, 10 minutes, 30 minutes, 60 minutes, or 120 minutes. At the end of incubation, stop solution consisting of 200 ng/mL tolbutamide and 200 ng/mL labetalol in ACN was added to precipitate protein and mixed thoroughly. Samples were then transferred to a bioanalysis plate and shaken for 10 minutes prior to HPLC-MS/MS analysis of percent remaining compound.
smiles,measurement,setting,value
CC[C@H](C)[C@@H]([C@@H](CC(=O)N1CCC[C@H]1[C@H](OC)[C@@H](C)C(=O)N[C@H](C)[C@@H](O)c1ccccc1)OC)N(C)C(=O)[C@@H](NC(=O)[C@H](C(C)C)N(C)C(=O)OCc1ccc(NC(=O)[C@H](CCCNC(N)=O)NC(=O)[C@@H](NC(=O)CCCC(=O)NCCC(=O)N(C)CC(=O)N(C)CC(=O)N(C)CC(=O)N(C)CC(=O)N[C@@H](C)C(=O)N2CCC[C@H]2C(=O)N[C@@H](CCCNC(=N)N)C(=O)N[C@@H](Cc2c[nH]c3ccccc23)C(=O)N[C@@H](CC(=O)O)C(=O)N[C@@H](C)C(=O)N2CCC[C@H]2C(=O)N[C@@H](CC(C)C)C(=O)N[C@@H](CCCNC(=N)N)C(=O)N[C@@H](CC(=O)O)C(=O)N2CCC[C@H]2C(=O)N[C@@H](C)C(=O)N[C@@H](CC(C)C)C(=O)N[C@@H](CCCNC(=N)N)C(=O)N[C@@H](CCC(N)=O)C(=O)N[C@@H](CC(C)C)C(=O)N[C@@H](CC(C)C)C(=O)O)C(C)C)cc1)C(C)C [PRGN_WT_PDC],tumor growth inhibited relative to vehicle,"[1]; 3 mg/kg i.v. QW×4, day 22 (Example 8)",96%
same,tumor growth inhibition,"[1]; 3, 1, 0.3 mg/kg i.v. QW x 4",dose-dependent tumor growth inhibition
same,body weight variation,"[1]; Example 6, PDC 3, 1, 0.3 mg/kg, free MMAE at equivalency to 3 mg/kg PDC",mirrored that observed with vehicle treatment
same,body weight loss,"[1]; Example 8, PDC 3 mg/kg, free MMAE 0.6 mg/kg, i.v. QW×4",body weight loss tracked each other
same,half-life at 2 μM,[2],17.1 min
